Fewer inactive variants are shown than the library holds.
Legend:
biotinyl-Phe-oxazolone = assay: self-aminoacylation, catalytic enhancement (BFO) (fold over background); higher = more active; k-Seq, kA / k0A0; sequences stand for … in GGGAAUGGAUCCACAUCUACGAAUUC…UUCACUGCAGACUUGACGAAGCUG
Summary of the method: (§1)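 Mutagenized RNA pools with a 21-nt variable region (0.43 μM) reacted with each biotinyl-aminoacyl-oxazolone at 2–1250 μM. Reactions ran in 50 μL HEPES/NaCl/KCl/MgCl2/CaCl2 buffer with 5% acetonitrile, pH 6.9–7.0, for 90 minutes at room temperature. Streptavidin-captured RNA was quantified by triplicate qPCR and Illumina sequencing, and per-sequence fraction reacted was fit to a pseudo-first-order model with 1000 bootstraps. Catalytic enhancement is median kA divided by the uncatalyzed rate, the low-activity peak of a bimodal Gaussian fit.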

biotinyl-Val-oxazolone = assay: self-aminoacylation, catalytic enhancement (BVO) (fold over background); higher = more active; k-Seq, kA / k0A0; sequences stand for … in GGGAAUGGAUCCACAUCUACGAAUUC…UUCACUGCAGACUUGACGAAGCUG
Summary of the method: as §1

biotinyl-Leu-oxazolone = assay: self-aminoacylation, catalytic enhancement (BLO) (fold over background); higher = more active; k-Seq, kA / k0A0; sequences stand for … in GGGAAUGGAUCCACAUCUACGAAUUC…UUCACUGCAGACUUGACGAAGCUG
Summary of the method: as §1

biotinyl-Ile-oxazolone = assay: self-aminoacylation, catalytic enhancement (BIO) (fold over background); higher = more active; k-Seq, kA / k0A0; sequences stand for … in GGGAAUGGAUCCACAUCUACGAAUUC…UUCACUGCAGACUUGACGAAGCUG
Summary of the method: as §1

biotinyl-Trp-oxazolone = assay: self-aminoacylation, catalytic enhancement (BWO) (fold over background); higher = more active; k-Seq, kA / k0A0; sequences stand for … in GGGAAUGGAUCCACAUCUACGAAUUC…UUCACUGCAGACUUGACGAAGCUG
Summary of the method: as §1

biotinyl-Met-oxazolone = assay: self-aminoacylation, catalytic enhancement (BMO) (fold over background); higher = more active; k-Seq, kA / k0A0; sequences stand for … in GGGAAUGGAUCCACAUCUACGAAUUC…UUCACUGCAGACUUGACGAAGCUG
Summary of the method: as §1

Sequence | self-aminoacylation (biotinyl-Phe-oxazolone) | self-aminoacylation (biotinyl-Val-oxazolone) | self-aminoacylation (biotinyl-Leu-oxazolone) | self-aminoacylation (biotinyl-Ile-oxazolone) | self-aminoacylation (biotinyl-Trp-oxazolone) | self-aminoacylation (biotinyl-Met-oxazolone)
CUACUUCAAAAAAUCUGUCUG [Fam1A.1 aminoacylation ribozyme variant] | 1.36 | 0.699 | 0.61 | 0.84 | 0.797 | 0.589
AUUCACCGAUGUCAUCGGGUG [Fam2.2 aminoacylation ribozyme variant] | 62.7 | 4.63 | 10.8 | 5.59 | 7.35 | 8.67
AUUUACCUAGGUCAUCGGGUG [Fam2.2 aminoacylation ribozyme variant] | 235 | 15.4 | 45 | 18.3 | 26.1 | 33.2
CCACACUUCAUGCAAACGGUC [Fam1B.1 aminoacylation ribozyme variant] | 0.769 | 0.774 | 0.507 | 0.809 | 0.512 | 0.556
AGUCACCUAGGACAUCGGGUG [Fam2.2 aminoacylation ribozyme variant] | 26.6 | 5.02 | 4.11 | 4.13 | 6.31 | 4.24
UUUACCCUUGUCAUCGAGUGA [Fam2.1 aminoacylation ribozyme variant] | 19.9 | 3.38 | 6.18 | 3.37 | 7.94 | 6.04
CUGCUUCAAACAAGCGGUCUG [Fam1A.1 aminoacylation ribozyme variant] | 0.392 | 0.731 | 0.777 | 0.718 | 0.576 | 0.597
ACUCACCUAUGUCAUCGGGUG [Fam2.2 aminoacylation ribozyme variant] | 33.4 | 4.18 | 6.52 | 4.11 | 6.08 | 5.4
AUUCAACUAUGUCAUCGGGUG [Fam2.2 aminoacylation ribozyme variant] | 33.1 | 2.45 | 6.15 | 3.08 | 4.57 | 4.78
AUUACAAUGGUCAUCGAGUGA [Fam2.1 aminoacylation ribozyme variant] | 16.6 | 3.54 | 6.42 | 3.7 | 7.87 | 6.47
AUUAGCCUGGUCAUCGGGUGA [Fam2.1 aminoacylation ribozyme variant] | 94.3 | 7.06 | 13.3 | 6.74 | 13.4 | 10.1
AAGUUUGCUAAUAGUCGAUAG [Fam3.1 aminoacylation ribozyme variant] | 1.42 | 0.846 | 0.805 | 0.824 | 0.829 | 0.781
AUUACCAUGGUCAUCGAGUGC [Fam2.1 aminoacylation ribozyme variant] | 0.948 | 1.17 | 1.47 | 1.12 | 1.35 | 1.38
CUACUUCAACCAAUCGGUCCG [Fam1A.1 aminoacylation ribozyme variant] | 6.1 | 0.799 | 1.22 | 0.867 | 5.57 | 1.26
AUUGCCCUGGUCAUCGAGAGA [Fam2.1 aminoacylation ribozyme variant] | 1.73 | 1.2 | 1.5 | 1.2 | 0.807 | 1.39
AUGUUUGCUAAUAGUCGCUAG [Fam3.1 aminoacylation ribozyme variant] | 1.82 | 1.08 | 1.06 | 1.19 | 1.28 | 1.06
AAGUUUGCUAUUACUCGCAAG [Fam3.1 aminoacylation ribozyme variant] | 1.09 | 0.868 | 0.82 | 0.728 | 0.738 | 0.734
AUUCCCCUGGUCAUCGGGUGA [Fam2.1 aminoacylation ribozyme variant] | 106 | 8.68 | 14.4 | 7.79 | 15.6 | 14.1
CCACACUUCAAUCAAUCGGUG [Fam1B.1 aminoacylation ribozyme variant] | 2.64 | 1.98 | 3.6 | 2.23 | 2.57 | 2.66
CUUACCCUGGUCCUCGAGUGA [Fam2.1 aminoacylation ribozyme variant] | 28.8 | 3.36 | 4.96 | 2.44 | 5.89 | 5.36
CCACACUUCAAACAAUCGGCC [Fam1B.1 aminoacylation ribozyme variant] | 8.32 | 2.19 | 1.61 | 1.77 | 7.9 | 1.96

Sequence | self-aminoacylation (biotinyl-Phe-oxazolone) | self-aminoacylation (biotinyl-Val-oxazolone) | self-aminoacylation (biotinyl-Leu-oxazolone) | self-aminoacylation (biotinyl-Ile-oxazolone) | self-aminoacylation (biotinyl-Trp-oxazolone) | self-aminoacylation (biotinyl-Met-oxazolone)
AUUACCCUGGUCAUCGUGAGA [Fam2.1 aminoacylation ribozyme variant] | 0.858 | 0.789 | 0.777 | 0.703 | 0.867 | 0.897
AUUCACCGACGUCAUCGGGUG [Fam2.2 aminoacylation ribozyme variant] | 55.1 | 6.24 | 12.9 | 5.71 | 9.46 | 10.2
GAGUUUGCUAAUAGUCGCAAA [Fam3.1 aminoacylation ribozyme variant] | 3.15 | 2.15 | 1.93 | 2.47 | 1.59 | 1.64
AUUCACCCAGGUCAUCGGGUG [Fam2.2 aminoacylation ribozyme variant] | 34.2 | 3.53 | 5.86 | 3.26 | 4.53 | 4.83
CCACACAUCAAACAAUCGGUC [Fam1B.1 aminoacylation ribozyme variant] | 3.04 | 0.92 | 0.749 | 0.795 | 1.92 | 0.715
AAGUUUGCAAAUAGUCGCAAA [Fam3.1 aminoacylation ribozyme variant] | 0.845 | 1.62 | 1.79 | 1.67 | 1.21 | 1.52
CCAAACUUCAAUCAAUCGGUC [Fam1B.1 aminoacylation ribozyme variant] | 36.8 | 1.28 | 1.73 | 1.29 | 23.5 | 1.43
AUUAUUCUGGUCAUCGAGUGA [Fam2.1 aminoacylation ribozyme variant] | 22.9 | 3.12 | 6.25 | 3.4 | 7.13 | 5.31
CCAUACUGCAAGCAAUCGGUC [Fam1B.1 aminoacylation ribozyme variant] | 1.06 | 1.14 | 0.996 | 1.14 | 0.938 | 1.15
CUACCUCAAACAAUAGGUCUG [Fam1A.1 aminoacylation ribozyme variant] | 1.08 | 1 | 0.846 | 0.959 | 0.691 | 0.838
UCACACUUCAAGCAAUCGCUC [Fam1B.1 aminoacylation ribozyme variant] | 1.94 | 1.32 | 1.3 | 1.43 | 1.45 | 1.46
AUUACCCUGGUCAUCACGUGA [Fam2.1 aminoacylation ribozyme variant] | 52.4 | 4.39 | 7.86 | 3.08 | 9.65 | 8.87
AUUGCCCUGGUCAUCGACUGA [Fam2.1 aminoacylation ribozyme variant] | 1.08 | 0.951 | 0.735 | 0.899 | 1.35 | 0.941
CCACACUUGAAGGAAUCGGUC [Fam1B.1 aminoacylation ribozyme variant] | 1.23 | 1.39 | 1.55 | 1.28 | 1.71 | 1.39
AUUACCCUGGUCAUGGAGUGC [Fam2.1 aminoacylation ribozyme variant] | 0.89 | 1.17 | 1.24 | 1.05 | 0.556 | 0.858
CCGCACUUCAAGGAAUCGGUC [Fam1B.1 aminoacylation ribozyme variant] | 10.7 | 1.52 | 1.44 | 1.45 | 10.8 | 1.37
AUUAACCUAGGUCCUCGGGUG [Fam2.2 aminoacylation ribozyme variant] | 18 | 2.81 | 4.72 | 2.58 | 3.09 | 4.07
AUUACCCUUGUCAUCGAGUGU [Fam2.1 aminoacylation ribozyme variant] | 8.43 | 2.03 | 3.08 | 1.71 | 3.65 | 2.89
CCGCAGUUCAAGCAAUCGGUC [Fam1B.1 aminoacylation ribozyme variant] | 5.75 | 1.82 | 1.85 | 1.58 | 6.86 | 1.96
CCACACUUCAAGCAAGUGGUC [Fam1B.1 aminoacylation ribozyme variant] | 0.777 | 0.611 | 0.449 | 0.441 | 0.536 | 0.43
AUUGACCUAAGUCAUCGGGUG [Fam2.2 aminoacylation ribozyme variant] | 56.8 | 5.26 | 12.1 | 5.64 | 9.4 | 7.6
